Results on four molecules are retold here after US11130793B2, “GLP-1/GLP-2 dual agonists” (Zealand Pharma A/S, priority 2016, dated 2021).

The target of assay [1] is human glucagon-like peptide 1 receptor (GLP-1R) (human, UniProt P43220). Nature of the assay: cell-based or functional assay.
The target in assay [2] is T1, human GLP-2 receptor (hGLP2-R) (human, UniProt O95838).
T1 sequence: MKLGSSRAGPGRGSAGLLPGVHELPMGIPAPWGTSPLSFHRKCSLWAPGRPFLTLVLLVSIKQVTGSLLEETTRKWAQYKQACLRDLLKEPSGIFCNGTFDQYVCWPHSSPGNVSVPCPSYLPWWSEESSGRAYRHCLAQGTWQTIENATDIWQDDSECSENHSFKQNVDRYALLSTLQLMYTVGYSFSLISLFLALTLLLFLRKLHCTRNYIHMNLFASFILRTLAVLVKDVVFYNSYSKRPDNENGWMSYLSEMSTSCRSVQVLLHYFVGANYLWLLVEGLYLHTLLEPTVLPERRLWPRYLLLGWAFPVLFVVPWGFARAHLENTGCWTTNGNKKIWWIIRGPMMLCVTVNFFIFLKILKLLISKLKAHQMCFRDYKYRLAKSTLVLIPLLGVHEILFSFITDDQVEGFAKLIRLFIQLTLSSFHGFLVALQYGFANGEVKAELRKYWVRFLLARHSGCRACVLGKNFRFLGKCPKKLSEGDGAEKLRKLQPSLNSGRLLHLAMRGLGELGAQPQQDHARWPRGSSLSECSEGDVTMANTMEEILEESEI
Nature of the assay: cell-based or functional assay.

Square brackets hold non-standard residues; d marks the D form. Aib = CC(C)(N)C(=O)O

B1: Compound 29 (peptide)
peptide: H-H[Aib]EGTFTDELATILDEQAARDFIAWLQAQKITD-OH
modifications: not fully specified; printed as Hy-H[Aib]EGTFTDELATILDEQAARDFIAWLQAQKITD-OH
On to B1, for which the “EC50 GLP-1 (nM); cAMP AlphaScreen” value in assay [1] was found to be 0.044 nM. Also, in assay [2], the “EC50 GLP-2 (nM); cAMP AlphaScreen” value was determined as 0.11 nM.

B2: Compound 31 (peptide)
peptide: H-H[Aib]EGSFTSELATILDGKAARDFIAWLIAHKITD-OH
SMILES: CC[C@H](C)[C@H](NC(=O)[C@H](CC(C)C)NC(=O)[C@H](Cc1c[nH]c2ccccc12)NC(=O)[C@H](C)NC(=O)[C@@H](NC(=O)[C@H](Cc1ccccc1)NC(=O)[C@H](CC(=O)O)NC(=O)[C@H](CCCNC(=N)N)NC(=O)[C@H](C)NC(=O)[C@H](C)NC(=O)[C@H](CCCCN)NC(=O)CNC(=O)[C@H](CC(=O)O)NC(=O)[C@H](CC(C)C)NC(=O)[C@@H](NC(=O)[C@@H](NC(=O)[C@H](C)NC(=O)[C@H](CC(C)C)NC(=O)[C@H](CCC(=O)O)NC(=O)[C@H](CO)NC(=O)[C@@H](NC(=O)[C@H](Cc1ccccc1)NC(=O)[C@H](CO)NC(=O)CNC(=O)[C@H](CCC(=O)O)NC(=O)C(C)(C)NC(=O)[C@@H](N)Cc1c[nH]cn1)[C@@H](C)O)[C@@H](C)O)[C@@H](C)CC)[C@@H](C)CC)C(=O)N[C@@H](C)C(=O)N[C@@H](Cc1c[nH]cn1)C(=O)N[C@@H](CCCCN)C(=O)N[C@H](C(=O)N[C@H](C(=O)N[C@@H](CC(=O)O)C(=O)O)[C@@H](C)O)[C@@H](C)CC
In the case of B2, in assay [1], the “EC50 GLP-1 (nM); cAMP AlphaScreen” value came out at 0.02 nM. In assay [2], the “EC50 GLP-2 (nM); cAMP AlphaScreen” value stood at 0.078 nM.

B3: Compound 32 (peptide)
peptide: H-H[Aib]EGTFSSELATILDGKAARDFIAWLIAHKITD-OH
SMILES: CC[C@H](C)[C@H](NC(=O)[C@H](CC(C)C)NC(=O)[C@H](Cc1c[nH]c2ccccc12)NC(=O)[C@H](C)NC(=O)[C@@H](NC(=O)[C@H](Cc1ccccc1)NC(=O)[C@H](CC(=O)O)NC(=O)[C@H](CCCNC(=N)N)NC(=O)[C@H](C)NC(=O)[C@H](C)NC(=O)[C@H](CCCCN)NC(=O)CNC(=O)[C@H](CC(=O)O)NC(=O)[C@H](CC(C)C)NC(=O)[C@@H](NC(=O)[C@@H](NC(=O)[C@H](C)NC(=O)[C@H](CC(C)C)NC(=O)[C@H](CCC(=O)O)NC(=O)[C@H](CO)NC(=O)[C@H](CO)NC(=O)[C@H](Cc1ccccc1)NC(=O)[C@@H](NC(=O)CNC(=O)[C@H](CCC(=O)O)NC(=O)C(C)(C)NC(=O)[C@@H](N)Cc1c[nH]cn1)[C@@H](C)O)[C@@H](C)O)[C@@H](C)CC)[C@@H](C)CC)C(=O)N[C@@H](C)C(=O)N[C@@H](Cc1c[nH]cn1)C(=O)N[C@@H](CCCCN)C(=O)N[C@H](C(=O)N[C@H](C(=O)N[C@@H](CC(=O)O)C(=O)O)[C@@H](C)O)[C@@H](C)CC
As for B3, the “EC50 GLP-1 (nM); cAMP AlphaScreen” value in assay [1] was 0.038 nM. Besides, the “EC50 GLP-2 (nM); cAMP AlphaScreen” value in assay [2] was 0.15 nM.

B4: Compound 30 (peptide)
peptide: H-H[Aib]EGSFTSELATILDEQAARDFIAWLYRHKITD-OH
modifications: not fully specified; printed as Hy-H[Aib]EGSFTSELATILDEQAARDFIAWLYRHKITD-OH
Take B4: in assay [1], the “EC50 GLP-1 (nM); cAMP AlphaScreen” value is 0.1 nM. The “EC50 GLP-2 (nM); cAMP AlphaScreen” value in assay [2] was found to be 0.034 nM.
